No end group written: not given here. *: point of attachment. 5FAM = O=C1OC2(c3ccc(O)cc3Oc3cc(O)ccc32)c2ccc(C(=O)*)cc21; 5‑FAM = 5-carboxyfluorescein label

The target of assay [1] is T1, human condensin I pentamer, wild type (human, UniProt O95347 1-1197; Q9NTJ3 1-1288; Q15003 1-741; Q15021 1-1401; Q9BPX3 1-1015).
T1 construct: SMC2, human condensin I subunit; SMC4, human condensin I subunit; NCAPH, human condensin I kleisin subunit; NCAPD2, human condensin I HAWK subunit; NCAPG, human condensin I HAWK subunit; The complex carries a strep tag; also called CI; CIWT; source: Sf9 insect cells (baculovirus), co-expressed, purified (StrepTrap, heparin, SEC); copies: + + + +
In words: fluorescence polarisation; 100 nM 5-FAM labelled peptide, protein or complex titrated; 20 mM HEPES pH 8, 150 mM KCl, 2.5 mM MgCl, 5% glycerol, 1 mM DTT; room temperature, 15 min. The settings on record: both partners purified.

Assay [2] deals with T2, yeast condensin pentamer (S. cerevisiae, UniProt P38989 1-1170; Q12267 1-1418; P38170 1-754; Q06156 1-1176; Q06680 1-1035).
T2 construct: Smc2, S. cerevisiae condensin subunit; Smc4, S. cerevisiae condensin subunit; Brn1, S. cerevisiae condensin kleisin subunit; Ycs4, S. cerevisiae condensin HAWK subunit; Ycg1, S. cerevisiae condensin HAWK subunit; also called ScCondensin Pentamer; pentameric yeast condensin; source: purified as described previously (Martínez-García et al, 2022; Lee et al, 2020); copies: + + + +
The assay is described as above. The following applies: both partners purified.

B1: 5-FAM-KIF4A WT(1206-1228) peptide (peptide)
peptide: 5FAM-PGKKKKRALASNTSFFSGCSPIE
notes: KIF4A, chromokinesin, residues 1206-1228 (C-terminal tail SLiM); also called 5-FAM-KIF4A(1206-1228); 5-FAM labelled KIF4A; source: synthetic peptide; bought: Genscript
B1 displayed a dissociation constant (Kd) in assay [1] of 17.7 µM.

B2: 5-FAM Sgo1(503-523) peptide (peptide)
peptide: TRTKKLFKNAIVNNLSDENST
modifications: also: 5-FAM label, end not given here
notes: Sgo1, yeast shugoshin, residues 503-523, SLiM; also called Sgo peptide; source: synthetic peptide; bought: Genscript
Consider B2, for which the affinity in assay [2], expressed as Kd, was 4 ± 0.3 µM.

B3: 5-FAM NCAPD2-C(1376-1398) peptide (peptide)
peptide: 5FAM-SAEMTEDETPKKTTPILRASARR
notes: NCAPD2, human condensin I HAWK subunit, residues 1376-1398 (C-terminal SLiM); also called 5-FAM-NCAPD2(1376-1398); F-NCAPD2-C(1376-1398); source: synthetic peptide; bought: Genscript
As to B3, in assay [1], the binding result is “binds”.

B4: 5-FAM Lrs4(317-337) peptide (peptide)
peptide: {5‑FAM}-NKKRKLTKQRIATLPNSDEEL
notes: also called 5-FAM Lrs4(317-339); Lrs4 peptide; source: synthetic peptide; bought: Genscript
Molecule B4 yielded an equilibrium dissociation constant (Kd) in assay [2] of 12.9 ± 2.5 µM.

For the origin of these results see paper PMC11790958 (The EMBO Journal, 2024).
